Measured values published in patent publication US20230002503A1.

Assays:
[1] = target: monkey CAIX on CHO cells (CHO-cyCAIX) (monkey); assay: flow cytometry on CHO-cyCAIX cells
[2] = target: murine CAIX on CHO cells (CHO-mCAIX) (mouse) (UniProt Q8VHB5); assay: flow cytometry on CHO-mCAIX cells
[3] = target: human CAIX on CHO cells (CHO-hCAIX) (human) (UniProt Q16790); assay: flow cytometry on CHO-hCAIX cells
[4] = target: human CAIX antigen (purchased from AcroBiosystems) (human) (UniProt Q16790); assay: BLI (ForteBio), method of Example 3

Chain of murine CAIX on CHO cells (CHO-mCAIX) (mouse) (Q8VHB5 32-437): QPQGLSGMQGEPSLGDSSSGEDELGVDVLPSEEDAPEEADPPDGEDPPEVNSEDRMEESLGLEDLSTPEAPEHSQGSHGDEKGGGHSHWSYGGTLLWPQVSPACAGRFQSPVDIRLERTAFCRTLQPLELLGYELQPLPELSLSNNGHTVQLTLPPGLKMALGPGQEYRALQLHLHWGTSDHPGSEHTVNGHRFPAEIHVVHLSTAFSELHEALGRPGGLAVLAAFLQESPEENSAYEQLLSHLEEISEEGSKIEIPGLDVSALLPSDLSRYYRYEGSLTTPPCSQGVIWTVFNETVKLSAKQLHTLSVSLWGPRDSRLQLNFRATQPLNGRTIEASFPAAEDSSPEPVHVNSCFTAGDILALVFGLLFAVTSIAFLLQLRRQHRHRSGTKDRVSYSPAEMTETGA

EC50 [1]: 27.9 nM
EC50 [2]: 35.1 nM
EC50 [3]: 16.5 nM
Kd [4]: 1.01 nM
koff [4]: 0.0001 s⁻¹
kon [4]: 98600 M⁻¹ s⁻¹
Substance: Gerentuximab (antibody)
